system: Escherichia coli TOP10; test: shrunken log2 fold change of peptide-encoding DNA abundance (4.5 h post-induction vs induction); higher = less antimicrobial activity (less host growth inhibition); conditions: time post-induction: 4.5 h; library: site-saturation at positions 5, 18, 19, 20
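Further: peptides expressed intracellularly from a pBAD plasmid library in pooled LB shake-flask culture, induced with 0.3% L-arabinose, DNA abundance read by NGS, three biological replicates, DESeq2 with apeglm shrinkage.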

| Sequence | shrunken log2 fold change |
| --- | --- |
| RRIRNRPPRLPRPRPRPGDWPRP | 2.87 |
| RRIRMRPPRLPRPRPRPSAQPRP | 0.623 |
| RRIRRRPPRLPRPRPRPMKAPRP | 0.0483 |
| RRIRNRPPRLPRPRPRPCSWPRP | -0.117 |
| RRIRRRPPRLPRPRPRPQRDPRP | 0.179 |
| RRIRSRPPRLPRPRPRPFWDPRP | 0.0853 |
| RRIRHRPPRLPRPRPRPWGNPRP | -0.0654 |
| RRIRARPPRLPRPRPRPCCPPRP | -0.273 |
| RRIRMRPPRLPRPRPRPRCAPRP | 1.12 |
| RRIRTRPPRLPRPRPRPALFPRP | 0.000901 |
| RRIRERPPRLPRPRPRPNKNPRP | 0.0755 |
| RRIRIRPPRLPRPRPRPVTFPRP | -0.00574 |
| RRIRNRPPRLPRPRPRPPMFPRP | -0.0155 |
| RRIRIRPPRLPRPRPRPDCQPRP | 0.000528 |
| RRIRVRPPRLPRPRPRPILHPRP | 1.12 |
| RRIRKRPPRLPRPRPRPVLPPRP | 0.338 |
| RRIRVRPPRLPRPRPRPIHIPRP | -1.11 |
| RRIRYRPPRLPRPRPRPSLCPRP | -0.109 |
| RRIRLRPPRLPRPRPRPVFDPRP | -0.251 |
| RRIRPRPPRLPRPRPRPWAKPRP | -0.0178 |

| Sequence | shrunken log2 fold change |
| --- | --- |
| RRIRQRPPRLPRPRPRPDMDPRP | -0.0896 |
| RRIRMRPPRLPRPRPRPHNNPRP | -0.153 |
| RRIRWRPPRLPRPRPRPAAHPRP | 0.167 |
| RRIRYRPPRLPRPRPRPCKDPRP | -1.14 |
| RRIRCRPPRLPRPRPRPPDDPRP | 0.523 |
| RRIRQRPPRLPRPRPRPVTRPRP | 0.0193 |
| RRIRLRPPRLPRPRPRPYMTPRP | -0.82 |
| RRIRMRPPRLPRPRPRPTKRPRP | 0.901 |
| RRIRRRPPRLPRPRPRPEMIPRP | -0.00643 |
| RRIRRRPPRLPRPRPRPGSVPRP | 0.299 |
| RRIRLRPPRLPRPRPRPVWGPRP | 0.0435 |
| RRIRARPPRLPRPRPRPPLCPRP | 0.762 |
| RRIRWRPPRLPRPRPRPIKPPRP | -0.0158 |
| RRIRPRPPRLPRPRPRPQYVPRP | -0.184 |
| RRIRDRPPRLPRPRPRPQSCPRP | -0.0045 |
| RRIRNRPPRLPRPRPRPQTLPRP | -0.513 |
| RRIRPRPPRLPRPRPRPSMIPRP | -0.547 |
| RRIRYRPPRLPRPRPRPLHMPRP | -0.116 |
| RRIRQRPPRLPRPRPRPCHWPRP | 0.018 |
| RRIRDRPPRLPRPRPRPNHCPRP | 0.0177 |

| Sequence | shrunken log2 fold change |
| --- | --- |
| RRIRVRPPRLPRPRPRPIGIPRP | -0.415 |
| RRIRDRPPRLPRPRPRPVTVPRP | -0.135 |
| RRIRWRPPRLPRPRPRPAISPRP | -0.00844 |
| RRIRTRPPRLPRPRPRPCFQPRP | -0.232 |
| RRIRGRPPRLPRPRPRPWIPPRP | -0.429 |
| RRIRVRPPRLPRPRPRPINGPRP | -0.17 |
| RRIRARPPRLPRPRPRPSVRPRP | -0.0488 |
| RRIRFRPPRLPRPRPRPGVDPRP | -0.145 |
| RRIRTRPPRLPRPRPRPPDQPRP | 0.601 |
| RRIRKRPPRLPRPRPRPSRPPRP | 0.529 |
| RRIRPRPPRLPRPRPRPKWEPRP | -0.0741 |
| RRIRKRPPRLPRPRPRPAQAPRP | 0.281 |
| RRIRRRPPRLPRPRPRPALYPRP | 0.225 |
| RRIRTRPPRLPRPRPRPLQNPRP | 0.163 |
| RRIRTRPPRLPRPRPRPCLSPRP | 0.079 |
| RRIRARPPRLPRPRPRPTTIPRP | 0.0651 |
| RRIRDRPPRLPRPRPRPEKSPRP | -0.00264 |
| RRIRWRPPRLPRPRPRPDPLPRP | 0.221 |
| RRIRNRPPRLPRPRPRPEYNPRP | -0.678 |
| RRIRWRPPRLPRPRPRPMAQPRP | 0.218 |

Reference: the supplement of paper PMC9112550, “Optimization of the antimicrobial peptide Bac7 by deep mutational scanning” (BMC Biology, 2022)
